Measurements: patent US20190352376A1

Biological target: peptide of Example 1 (influenza virus)
Assay: SPR, mAb captured on anti-mouse Fc, peptide injected

B1: F211-9D1 (antibody, V domains shown)
VL: DIVMSQSPSSLAVSVGEKVTMSCKSSQSLLNSRNQKNHLAWYQQKPGQSPKLLIYWASTRESGVPDRFSGDGSGTDFTLTISSVKAEDLAVYYCQQYYTYRTFGGGTKLEIK
VH: DVQLQESGPGLVKPSQSLSLTCSVTGYSITSDYYWNWIRQFPGNKLEWMAYIGYDGSKNYNPSLKNRISITRDTSKNQFFLKLNSVTTDDTATYYCTRDRANWDDYFDYWGQGTTLTVSS
- Kd: 0.393 nM
